The results in this text go back to patent US20200317802A1.

The target of assay [1] is bovine recombinant ADAMTS5 (bovine). The experiment in a line: SPR off-rate, Biacore T100, ADAMTS5 immobilised, experiment 3. On the technique in general: In SPR one partner is held on a chip, and binding of the other changes the refractive index at the surface.
Assay [2] has as its target recombinant human ADAMTS5 (R&D Systems cat #2198-AD) (human) (UniProt Q9UNA0). Briefly: cell-based or functional assay.
Assay [3] has as its target T1, human ADAMTS4 (R&D Systems cat #4307-AD) (human) (UniProt O75173).
T1 sequence (looked up): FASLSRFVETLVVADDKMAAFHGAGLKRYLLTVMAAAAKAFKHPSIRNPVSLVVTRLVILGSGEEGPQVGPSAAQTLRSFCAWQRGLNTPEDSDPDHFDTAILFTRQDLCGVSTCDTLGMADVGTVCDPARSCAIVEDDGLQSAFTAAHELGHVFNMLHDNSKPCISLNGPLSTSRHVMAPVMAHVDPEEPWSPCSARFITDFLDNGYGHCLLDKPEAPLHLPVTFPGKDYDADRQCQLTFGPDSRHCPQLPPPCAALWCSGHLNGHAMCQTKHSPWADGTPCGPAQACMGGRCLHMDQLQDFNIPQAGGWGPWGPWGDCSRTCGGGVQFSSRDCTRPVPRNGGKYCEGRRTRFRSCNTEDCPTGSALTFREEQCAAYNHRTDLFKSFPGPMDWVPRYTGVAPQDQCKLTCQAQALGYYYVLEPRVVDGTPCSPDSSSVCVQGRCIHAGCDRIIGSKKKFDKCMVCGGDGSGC

Assay [4] has as its target activated human MMP-1 (human) (UniProt P03956).

Sequence of recombinant human ADAMTS5 (R&D Systems cat #2198-AD) (human) (Q9UNA0 262-622 limits assumed): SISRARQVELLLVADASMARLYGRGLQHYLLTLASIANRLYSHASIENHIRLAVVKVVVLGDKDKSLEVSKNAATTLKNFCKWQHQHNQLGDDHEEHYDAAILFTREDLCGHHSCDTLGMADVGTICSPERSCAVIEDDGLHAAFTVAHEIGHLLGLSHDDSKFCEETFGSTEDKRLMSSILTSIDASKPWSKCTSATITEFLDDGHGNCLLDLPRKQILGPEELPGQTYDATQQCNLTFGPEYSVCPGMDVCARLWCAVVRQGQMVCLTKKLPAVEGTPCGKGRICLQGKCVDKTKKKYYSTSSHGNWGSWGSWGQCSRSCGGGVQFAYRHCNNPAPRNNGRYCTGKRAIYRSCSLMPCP
Sequence of activated human MMP-1 (human) (P03956 100-469 limits assumed): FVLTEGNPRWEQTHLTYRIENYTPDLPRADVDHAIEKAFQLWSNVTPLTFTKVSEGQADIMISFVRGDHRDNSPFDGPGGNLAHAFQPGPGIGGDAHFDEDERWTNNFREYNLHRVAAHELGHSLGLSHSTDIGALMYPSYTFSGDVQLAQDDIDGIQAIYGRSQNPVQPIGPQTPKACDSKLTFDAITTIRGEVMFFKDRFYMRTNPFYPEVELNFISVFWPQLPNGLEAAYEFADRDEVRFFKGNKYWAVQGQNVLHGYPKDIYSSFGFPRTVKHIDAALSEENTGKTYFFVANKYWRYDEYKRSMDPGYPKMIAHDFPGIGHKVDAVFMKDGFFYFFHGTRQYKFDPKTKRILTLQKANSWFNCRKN

B1: Nanobody 2D07 (VHH)
VHH: EVQLVESGGGLVQAGGSLRLSCSFSGPGRTFARYAMGWFRQAPGKNRDFITGISGSGDSTYYVYPMKDRFTISRDNAKNMVYLQMNALKPEDTAVYYCAADREINRIANDKELDFWGQGTLVTVSS
What is called koff is the rate constant with which the complex falls apart. Turning to B1, the koff in assay [1] stood at 0.00062 s⁻¹.

B2: Nanobody 11B06 (VHH)
VHH: EVQLVESGGGLVQAGGSLRLSCAASGLTFRRNAMGWFRQAPGKERELLAGINWSGGTTYYVDSVKGRFTISRDNAKNTVDLQMISPKPEDTAVYYCAADGDIGTLVNDENPRYWGQGTLVTVSS
In the case of B2, the koff in assay [1] stood at 0.00024 s⁻¹.

B3: rhTIMP3 (protein, human, UniProt P35625 24-211, looked up)
chain: CTCSPSHPQDAFCNSDIVIRAKVVGKKLVKEGPFGTLVYTIKQMKMYRGFTKMPHVQYIHTEASESLCGLKLEVNKYQYLLTGRVYDGKMYTGLCNFVERWDQLTLSQRKGLNYRYHLGCNCKIKSCYYLPCFVTSKNECLWTDMLSNFGYPGYQSKHYACIRQKGGYCSWYRGWAPPDKSIINATDP
As for B3, in assay [2], the Human AlphaLISA % inhibition stood at 100% and the Human AlphaLISA IC50 was 0.61 nM. The same molecule had an IC50 (read off the curve) (human ADAMTS-4 AlphaLISA) [right panel] in assay [3] of 2 nM. In assay [4], this molecule had an IC50 (read off the curve) (human MMP-1 activity, FRET peptide substrate) of 5 nM.

B4: Nanobody 2F03 (VHH)
VHH: EVQLVESGGGLVQAGGSLRLSCAASGRTVSSYAMGWFRLAPGKEREFVAGISRSAERTYYVDSLKGRFTISRDSAKNTVYLHMNRLKPEDTAVYYCAADLDPNRIFSREEYAYWGQGTLVTVSS
For the molecule B4, the koff in assay [1] was 4.3e-05 s⁻¹.

B5: Nanobody 2A12 (VHH)
VHH: EVQLVESGGGLVQAGGSLRLSCAASGRTFSSYAMGWFRQAPGKERDFVAGISRSAGRTYYVDSVKGRFTISRDSAKNTVYLQMNRLKPEDTAVYYCAADLDPNRIFSRDEAAYWGQGTLVTVSS
With B5, in assay [1], the koff is 0.00017 s⁻¹.

B6: Nanobody 3B02 (VHH)
VHH: EVQLVESGGGFVQAGGSLRLSCVASRRTISSGTMGWFRQAPGKEREFVAAIRWSSGMPYYLDSVMDRFTISRDNAKNTVSLQMNSLQPEDTAVYYCAADRSAFRDPSFDVNYEYWGRGTLVTVSS
For B6, the koff in assay [1] amounted to 0.0011 s⁻¹.

B7: Nanobody 3D01 (VHH)
VHH: EVQLVESGGGLVQAGGSLRLSCAPSGFTFSPYYMGWFRQAPGKERDFVAAISRSRGTTYYLDSTEGRFTISRDNANDTVYLQMNSLNPEDTAVYYCAAGRSPGDPSRTYLYDYWGQGTLVTVSS
Regarding B7, the koff in assay [1] amounted to 0.00035 s⁻¹.

B8: Nanobody 9D03 (VHH)
VHH: EVQLVESGGGLVQSGGSLRLSCAASGSAVSVNAMAWYRQAPGKQRDFVAGISRSAGRTYYTDSVKDRFTIARDSAKNTVYLQMNRLKPEDTAVYYCAADLDPNRIFSRDEAAYWGQGTLVTVSS
As for B8, in assay [1], the koff was 0.00099 s⁻¹.
